Assay results: paper PMC6265447, “The bacterial Mre11–Rad50 homolog SbcCD cleaves opposing strands of DNA by two chemically distinct nuclease reactions”

Biological target: SbcC;SbcD H84Q (Escherichia coli;Escherichia coli, UniProt P13458;P0AG76 1-1048;1-400, |H84Q)
Assay: fluorescence anisotropy; 1 mM ATP, 5 mM Mg2+, 1 mM Mn2+; 25 mM Tris pH 7.5, 50 mM KCl, 5 mM MgCl2, 1 mM MnCl2, 1 mM DTT, 1 mM ATP where stated; 5 nM DNA, 2-1000 nM SbcCD, 20 min at 25 C
Settings: protein: recombinant;recombinant; tags: ;C-terminal His6; chain copies: 2;2; label: 5' 6-FAM; blunt

Binder | Kd [nM]
30 bp DNA (dsDNA) DNA 1: CGCTTTATCAGAAGCCAGACATTAACGCTT DNA 2: AAGCGTTAATGTCTGGCTTCTGATAAAGCG | 43 ± 7
25 bp DNA (dsDNA) DNA 1: CGCTTTATCAGAAGCCAGACATTAA DNA 2: TTAATGTCTGGCTTCTGATAAAGCG | 146 ± 46
